Source: PMC4431990, “Functional and expression analyses of two kinds of betaine aldehyde dehydrogenases in a glycinebetaine-hyperaccumulating graminaceous halophyte, Leymus chinensis” (SpringerPlus, 2015)

Key:
purified protein = substrate: C[N+](C)(C)CC=O; assay: purified protein; details: 50 mM HEPES-KOH pH 8.0, 500 μM NAD+
[1] = substrate: NC(=O)c1ccc[n+]([C@@H]2O[C@H](COP(=O)(O)OP(=O)(O)OC[C@H]3O[C@@H](n4cnc5c(N)ncnc54)[C@H](O)[C@@H]3O)[C@@H](O)[C@H]2O)c1; assay: spectrophotometric aldehyde dehydrogenase assay (NADH formation); assay type: biochemical, Leymus chinensis; details: 50 mM HEPES-KOH pH 8.0, 5 mM betaine aldehyde
Description: (§1) spectrophotometric aldehyde dehydrogenase assay (NADH formation) on LcBADH1

[2] = substrate: C[N+](C)(C)CCCC=O; assay: as above; assay type: biochemical, Leymus chinensis; details: 50 mM HEPES-KOH pH 8.0, 500 μM NAD+
Description: as §1

[3] = substrate: NCCCC=O; assay: as above; assay type: biochemical, Leymus chinensis; details: 50 mM HEPES-KOH pH 8.0, 500 μM NAD+
Description: as §1

[4] = substrate: NCCC=O; assay: as above; assay type: biochemical, Leymus chinensis; details: 50 mM HEPES-KOH pH 8.0, 500 μM NAD+
Description: as §1

[5] = substrate: C[N+](C)(C)CCC=O; assay: as above; assay type: biochemical, Leymus chinensis; details: 50 mM HEPES-KOH pH 8.0, 500 μM NAD+
Description: as §1

[6] = substrate: NC(=O)c1ccc[n+]([C@@H]2O[C@H](COP(=O)(O)OP(=O)(O)OC[C@H]3O[C@@H](n4cnc5c(N)ncnc54)[C@H](O)[C@@H]3O)[C@@H](O)[C@H]2O)c1; assay: as above; assay type: biochemical, Leymus chinensis; details: 50 mM HEPES-KOH pH 8.0, 200 μM betaine aldehyde
Description: (§2) spectrophotometric aldehyde dehydrogenase assay (NADH formation) on LcBADH2

[7] = substrate: C[N+](C)(C)CCCC=O; assay: as above; assay type: biochemical, Leymus chinensis; details: 50 mM HEPES-KOH pH 8.0, 500 μM NAD+; remark: listed apart in the source
Description: as §2

[8] = substrate: NCCCC=O; assay: as above; assay type: biochemical, Leymus chinensis; details: 50 mM HEPES-KOH pH 8.0, 500 μM NAD+; remark: listed apart in the source
Description: as §2

[9] = substrate: NCCC=O; assay: as above; assay type: biochemical, Leymus chinensis; details: 50 mM HEPES-KOH pH 8.0, 500 μM NAD+; remark: listed apart in the source
Description: as §2

[10] = substrate: C[N+](C)(C)CCC=O; assay: as above; assay type: biochemical, Leymus chinensis; details: 50 mM HEPES-KOH pH 8.0, 500 μM NAD+; remark: listed apart in the source
Description: as §2

[11] = substrate: NC(=O)c1ccc[n+]([C@@H]2O[C@H](COP(=O)(O)OP(=O)(O)OC[C@H]3O[C@@H](n4cnc5c(N)ncnc54)[C@H](OP(=O)(O)O)[C@@H]3O)[C@@H](O)[C@H]2O)c1; assay: as above; assay type: biochemical, Leymus chinensis; details: 50 mM HEPES-KOH pH 8.0, 200 μM betaine aldehyde

Row | Protein | Km (purified protein) | Km [1] | Km [2] | Km [3] | Km [4] | Km [5] | Vmax (purified protein) | Km [6] | Vmax [6] | Km [7] | Vmax [7] | Km [8] | Vmax [8] | Km [9] | Vmax [9] | Km [10] | Vmax [10] | Km [11]
1 | LcBADH1 (Leymus chinensis) (protein, approx 54 kDa) MAAPPAIPRRGLFIGGGWREPTLGRRIPVINPATEDTIGDIPAATVEDVELAVAAARSAFLLDGGSRWSRASGATRAKYLNAIAAKIKEKISYLALLETVDSGKPKDEAVADMDDVAACFEYYAGLAEALDGKQHAPISLPMEEFKTYVLKEPIGVVGLITPWNYPLLMATWKVAPALAAGCTAVLKPSELASLTCLELGAICEEIGLPSGVLNIITGLGADAGAPIASHPHVDKIAFTGSTATSKTIMTAAAQMVKPVSLELGGKSPLVIFDDVADIDKAVEWAMFGCFFNGGQVCSATSRLLLREKIAERFLDRLVEWAKNIKISDPLEEGCRLGSVVSKGQYEKIKKFISTARSEGATILHGGDRPKHLGKGFFIEPTIITDVSTSMQIWREEVFGPVICVKVFKTESEAIELANDTHYGLAGGVISDDLERCERIAKVIHSGIVWINCSQPTLVQAPWGGNKQSGFGRELGEWGLENYLSVKQVTRYCKDELYGWYQRPSKL | 27300 ± 7000 µM | 15.6 ± 5.70 µM | 56.5 ± 17.0 µM | 48.1 ± 12.6 µM | 27.4 ± 6.30 µM | 762 ± 175 µM |  |  |  |  |  |  |  |  |  |  |  | 
2 | LcBADH2 (Leymus chinensis) (protein, approx 54 kDa) MASPAIPQRQLFIDGEWRAPALGRRLPVINPTTEASIGEIPSGTSEDVDAAVAAARAALKRNRGRDWSRAPGAVRAKYLRAIAAKMIERKADLARLEALDCGKPLDEAAWDMDDVAGCFEFFAGHAEALDKRQNAAVSLPENFKCHLKKEPIGVVSLITPWNYPLLMATWKVAPALAAGCTAVLKPSELASVTCLELADVCKEVGLPPGVLNVVTGLGPEAGAPLSSHPDVDKVAFTGSYATGQKIMVAAAPTVKAVTLELGGKSPIVVFDDVDIDKAVEWTLFGCFWTNGQICSATSRLLIHKNIAKEFVDRMVAWSKNIKVSDPLEEGCRLGPVVSEGQYEKIKKFISNAKSEGATILTGGVRPKHMEKGFFIEPTIITDINTSMEIWREEVFGPVLCVKEFSTEEEAIELANDTHYGLAGAVISGDRERCQRLAEEIDAGCIWVNCSQPCFCQAPWGGNKRSGFGRELGEGGIDNYLSIKQVTEYTSDAPWGWYKAPAN | 109 ± 10.0 µM |  |  |  |  |  | 1.59 µmol/min/mg | 7.66 ± 0.60 µM | 1.36 µmol/min/mg | 22.1 ± 1.50 µM | 1.33 µmol/min/mg | 1.96 ± 0.30 µM | 1.29 µmol/min/mg | 4.53 ± 0.81 µM | 2.16 µmol/min/mg | 91.4 ± 9.60 µM | 1.01 µmol/min/mg | 3680 ± 725 µM
